Consider 1 molecule from publication PMC3355305, “Localized Dimerization and Nucleoid Binding Drive Gradient Formation by the Bacterial Cell Division Inhibitor MipZ” (Molecular Cell, 2012).

The data set has as its system MipZ dimer. In words: Concentration dependence of the MipZ ATPase activity. It is filed as biochemical, Caulobacter crescentus. As for the experimental part:
Figure 2 Biochemical Analysis of MipZ Dimerization (A) ATPase cycle of MipZ. See the main text for details. (B and C) SPR analysis of MipZ self-association. MipZ or its mutant derivatives (3500 RU) were immobilized on a sensor chip and tested for homotypic interaction with the respective soluble protein (0.5 μM) in the presence of ADP (B) or ATP (C). After the binding phase, the chip was washed with buffer lacking protein and nucleotides to follow the dissociation reaction. The rate constants (koff) determined for the dissociation of the MipZ and MipZ-D42A complexes are 0.83 min^−1 and 0.067 min^−1, respectively. (D) Nucleotide-dependent dimerization of MipZ. MipZ-D42A was incubated with ADP (blue), ATP (orange) or ATPγS (red) and subjected to size exclusion chromatography. (E) ATPase activity of MipZ and its mutant derivatives. The graph gives the average turnover rate (kapp, average turnovers/min per molecule of MipZ) of the different MipZ derivatives (6 μM). Data represent the average of at least three independent experiments (±SD). Note that consistent with a critical role of the metal cofactor in dimerization and catalysis Mg^2+ was required for ATP turnover (Figure S2H). (F) Concentration dependence of the MipZ ATPase activity. The average turnover rate of MipZ (kapp) was determined at the indicated protein concentrations. Fitting of the data to a model that relates kapp to the relative abundance of dimers at the indicated MipZ concentrations (see the Experimental Procedures) yielded values of 8.0 μM (±1.2 μM) for the apparent equilibrium dissociation constant (K) of the MipZ dimer and 0.67 min^−1 (±0.03 min^−1) for the turnover number (kcat) of MipZ molecules in the dimeric state. The rate of dimer formation (kon ∼ kcat/K) derived from these values is 1.4 × 10^3 M^−1 s^−1. Data represent the mean of two independent experiments. See also Figure S2. TEXT PRINTED IN THE PICTURE: (F) MipZ: K = 8.0 μM; kcat = 0.67 min^-1 […]
According to the law of mass action, MipZ exists as a mixture of monomers (assumed to be largely in the ATP-bound state) and dimers, the equilibrium ratio of which depends on the total concentration of MipZ molecules in the reaction. […] Its average turnover rate (kapp) increased with rising protein concentrations and finally approached a plateau that likely reflects a situation in which all MipZ molecules have transitioned to the active, dimeric state. […]
β-galactosidase, MipZ, and FtsZ activity assays are detailed in the Supplemental Experimental Procedures. […]
obtained from crystals flash frozen in a solution of 95% 2 mM, sa mp le s were taken and analyzed for the amount ethanol/50 mM Tris (pH 8.5), and collected at ID23-2, of [α-32P]-GDP produced in the reaction as described ESRF (Grenoble, France). […]

B1: MipZ: P loop ATPase and cell division inhibitor of Caulobacter crescentus; hexahistidine-tagged in vitro, YFP fusion in FRAP (protein)
chain: MAETRVIVVGNEKGGAGKSTIAVHLVTALLYGGAKVAVIDLDLRQRTSARFFENRRAWLDNKKIELPEPLALNLSDNDVALAERPEEEQVAGFEAAFARAMAECDFILIDTPGGDSAITRMAHGRADLVVTPMNDSFVDFDMLGTVDPVTLELTKPSLYSLTVWEGRKQRALSGQRQAMDWVVLRNRLATTEARNRKRLEDRLNALAKRVGFRIGPGLRDRVIYRELFPFGLTIADLSPQVRPVPVSLQHLAARQELRALMHSLGLSAYSGETMLAAQ
modifications: left off: His6, end not stated, state not stated
notes: hexahistidine-tagged in vitro, YFP fusion in FRAP
As to B1, where the note is “ATP hydrolysis, fit of kapp vs MipZ concentration”, the “turnover number (kcat) of MipZ molecules in the dimeric state” value was 0.0112 s⁻¹. For the same molecule, for the setting “derived from K and kcat”, the “rate of dimer formation (kon ∼ kcat/K)” value turned out to be 1400 M⁻¹ s⁻¹. For the setting “fit of kapp vs MipZ concentration, 2 mM ATP, read-out: apparent equilibrium dissociation constant (K) of the MipZ dimer”, the Kd was found to be 8 µM. The “lifetime of the sandwich dimer (τ ∼ 1/kcat)” value (hydrolysis-driven dissociation) is given as approximately 90 s.
